{"source": "patent US20230227537A1", "about": "(VIB VZW, published 2023)", "key": {"[1]": {"biological_target": "T1, SARS-CoV NTD (N-terminal domain) (SARS-CoV-1, UniProt P59594 14-276)", "T1 sequence": "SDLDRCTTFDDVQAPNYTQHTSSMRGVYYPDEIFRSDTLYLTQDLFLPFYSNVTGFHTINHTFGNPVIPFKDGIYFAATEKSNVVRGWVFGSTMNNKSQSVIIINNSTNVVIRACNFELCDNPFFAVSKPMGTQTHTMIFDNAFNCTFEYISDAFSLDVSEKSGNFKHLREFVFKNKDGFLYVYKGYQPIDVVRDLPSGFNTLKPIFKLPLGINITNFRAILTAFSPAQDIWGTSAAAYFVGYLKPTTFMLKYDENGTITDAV", "assay": "ELISA, coated antigen"}, "SARS-CoV RBD [2]": {"biological_target": "T2, SARS-CoV RBD (SARS-CoV-1, UniProt P59594 320-502)"}, "[3]": {"biological_target": "T3, 2019-nCoV RBD (purified recombinant) (SARS-CoV-2, UniProt P0DTC2 330-518)"}, "SARS-CoV RBD [4]": {"biological_target": "T2, SARS-CoV RBD", "assay": "SPR, His-tagged VHH on NTA chip, RBD as analyte"}, "[5]": {"biological_target": "T3, 2019-nCoV RBD (purified recombinant)", "assay": "SPR, His-tagged VHH on NTA chip, RBD as analyte"}, "[6]": {"biological_target": "SARS-CoV-2 RBD protein Avi-tag biotinylated (AcroBiosystems SPD-C82E9) (SARS-CoV-2, UniProt P0DTC2 330-518)", "assay": "competition AlphaLISA; competitor human ACE2-mFc; as to % inhibition: test concentration or dose not given here"}, "[7]": {"biological_target": "SARS-CoV-1 spike, full length, on cells or on pseudotyped virus (SARS-CoV-1, UniProt P59594 14-1255)", "assay": "cell-based or functional assay"}}}
{"binder": "SARS VHH-72 (VHH) VHH: QVQLQESGGGLVQAGGSLRLSCAASGRTFSEYAMGWFRQAPGKEREFVATISWSGGSTYYTDSVKGRFTISRDNAKNTVYLQMNSLKPDDTAVYYCAAAGLGTVVSEWDYDYDYWGQGTQVTVSS", "values": [{"measurement": "binding result", "setting": "[1]", "result": "no binding"}, {"measurement": "koff", "setting": "SARS-CoV RBD [2]", "result": 0.0033, "unit": "s⁻¹"}, {"measurement": "kon", "setting": "SARS-CoV RBD [2]", "result": "2.86e+06", "unit": "M⁻¹ s⁻¹"}, {"measurement": "koff", "setting": "[3]", "result": 3.13, "unit": "s⁻¹"}, {"measurement": "kon", "setting": "[3]", "result": "8.09e+07", "unit": "M⁻¹ s⁻¹"}, {"measurement": "Kd", "setting": "SARS-CoV RBD [4]", "result": 1.15, "unit": "nM"}, {"measurement": "Kd", "setting": "[5]", "result": 38.7, "unit": "nM"}, {"measurement": "% inhibition", "setting": "[6]", "result": 97, "unit": "%"}, {"measurement": "IC50", "setting": "[6]", "result": 26.7, "unit": "nM"}, {"measurement": "IC50, pseudotyped lentivirus neutralization, Huh7.5 cells, luciferase", "setting": "[7]", "result": 0.14, "unit": "µg/mL"}]}
